The text below walks through data of US9701750B2.

Assay [1] concerns the target human CD16A (FcγRIIIA) on the cell surface (human) (UniProt P08637).
In assay [2] the target is human CD16A-Fc^48R/158V fusion protein (human). Description: SPR (BIAcore 2000), CD16A-Fc immobilized, 1/1 Langmuir model. On the technique in general: SPR reads the build-up and loss of mass on a sensor chip optically.
Assay [3] has as its target human CD16A-Fc^48R/158F fusion protein (human). Description: SPR (BIAcore 2000), antigen immobilized.
For assay [4], the target named is human CD16A-Fc^48R/158V fusion protein (human). Description: SPR (BIAcore 2000), antigen immobilized.
The target in assay [5] is CD16B-Fc^SH (human). The assay is described as follows: SPR (BIAcore 2000), antigen immobilized.
For assay [6], the target named is CD16B-Fc^NA1 (human). The assay is described as follows: SPR (BIAcore 2000), antigen immobilized.
Assay [7] has as its target CD16B-Fc^NA2 (human). Description: SPR (BIAcore 2000), antigen immobilized.
Assay [8] deals with human CD16A-Fc^48R/158V fusion protein (human). Description: SPR (BIAcore 2000), CD16A-Fc immobilized, koff/kon.
Assay [9] deals with human CD16A-Fc^48R/158F fusion protein (human). Description: SPR (BIAcore 2000), antigen immobilized, koff/kon.
In assay [10] the target is human CD16A-Fc^48R/158V fusion protein (human). The assay is described as follows: SPR (BIAcore 2000), antigen immobilized, koff/kon.
Assay [11] deals with CD16B-Fc^SH (human). Description: SPR (BIAcore 2000), antigen immobilized, koff/kon.
Assay [12] concerns the target CD16B-Fc^NA1 (human). The assay is described as follows: SPR (BIAcore 2000), antigen immobilized, koff/kon.
In assay [13] the target is CD16B-Fc^NA2 (human). The assay is described as follows: SPR (BIAcore 2000), antigen immobilized, koff/kon.

A word on the koff: it is the first-order rate constant of dissociation. As a reminder, the kon is the rate constant with which the complex forms. A low value points to slower complex formation. As a reminder, the Kd is the free concentration of one partner at which half of the binding sites on the other are occupied at equilibrium, for simple one-to-one binding. Consider anti-CD16 murine monoclonal antibody A9, for which, in assay [1], the redirected lysis of FcR-positive P815 cells by freshly isolated NK cells (calcein release) is 65%. Besides, the koff turned out to be 0.000177 s⁻¹ in assay [2]; 0.00038 s⁻¹ in [3]; 0.000406 s⁻¹ in assay [4]; 0.000528 s⁻¹ with CD16B-Fc^SH (human) [5]; 0.000487 s⁻¹ with CD16B-Fc^NA1 (human) [6]; 0.000478 s⁻¹ in the assay with CD16B-Fc^NA2 (human) [7]. Further, the kon in [2] turned out to be 101000 M⁻¹ s⁻¹; in assay [3], 99400 M⁻¹ s⁻¹; in [4], 78600 M⁻¹ s⁻¹; with CD16B-Fc^SH (human) [5], 77900 M⁻¹ s⁻¹; with CD16B-Fc^NA1 (human) [6], 77200 M⁻¹ s⁻¹; in the assay with CD16B-Fc^NA2 (human) [7], 75700 M⁻¹ s⁻¹. Besides, the Kd was found to be 1.75 nM in [8]; 3.82 nM in assay [9]; 5.17 nM in assay [10]; 11.4 nM with CD16B-Fc^SH (human) [11]; 8.91 nM with CD16B-Fc^NA1 (human) [12]; 9.63 nM with CD16B-Fc^NA2 (human) [13].
